Experimental findings from patent US6566088B1, “Prolyl-4-hydroxylases” (Board of Regents, The University of Texas System, priority 2001, dated 2003) are described below.

Series [1] relates to HIF-1a activation of the HRE-driven reporter. Put plainly: Hypoxia-responsive (HRE) luciferase reporter co-transfection in 293 cells. It counts as cell-based, human. The text has this: To test whether these HPH enzymes represent part of the hypoxic response pathway in vivo we first co-transfected (21) human embryonic kidney 293 cells with a hypoxia-responsive luciferase reporter (22) and increasing amounts of a vector expressing human HIF-1a under the control of the constitutive CMV promoter. Forced overexpression of HIF-1a can overcome the degradation pathway, resulting in accumulation of the HIF transcription factor under normoxic conditions and subsequent induction of the HRE-containing HIF reporter gene (22). […] Mutation of His^135, Asp^137 or His^196 to alanine eliminated the interfering activity of HPH 1 in these transfection assays. […] Finally, the ability of HPH 1 to diminish induction of the HIF-responsive luciferase reporter was lost when cells were incubated in an atmosphere containing 0.5% O2.
21. Transfection experiments were performed as in (22) with DNA amounts indicated in the text. Western blot analysis using an antibody specific for the carboxy-terminal V5 tag was used to confirm expression of each polypeptide following transfection of 1 μg of each expression vector.
(In general: A reporter such as luciferase makes a cellular process visible.)

For series [2], the system named is CMV-driven luciferase reporter. In words: Constitutive CMV-driven luciferase reporter co-transfection. It counts as cell-based, human.
Series [3] has as its system transfected cell cultures. Put plainly: Visual inspection of cell cultures transfected with HPH 1 expression vector.
The target of series [4] is human HIF-1a ODD peptide (Homo sapiens, UniProt Q16665, M561A/M568A). Put plainly: [35S]-pVHL pull-down prolyl hydroxylase assay with biotinylated HIF-1a ODD peptide. It counts as biochemical. To be noted: for prolyl hydroxylase activity (pVHL association with the biotinylated peptide): enzyme in vitro transcribed/translated in rabbit reticulocyte lysate, ascorbate, 2-oxoglutarate, FeSO4 present.

B1: HPH 1: human HIF prolyl hydroxylase 1, SEQ ID NO:1, Genbank XM_012332 (protein)
chain: MPLGHIMRLDLEKIALEYIVPCLHEVGFCYLDNFLGEVVGDCVLERVKQLHCTGALRDGQLAGPRAGVSKRHLRGDQITWIGGNEEGCEAISFLLSLIDRLVLYCGSRLGKYYVKERSKAMVACYPGNGTGYVRHVDNPNGDGRCITCIYYLNKNWDAKLHGGILRIFPEGKSFIADVEPIFDRLLFFWSDRRNPHEVQPSYATRYAMTVWYFDAEERAEAKKKFRNLTRKTESALTED
modifications: human
On to B1, for which the “effect on induction of the HIF-dependent luciferase reporter” value in series [1] (293 cells, normoxic, 30 ng or 100 ng HIF-1a expression vector, 3 ng CMV-driven vector) is listed as “able to attenuate”. The “ability to diminish induction of the HIF-responsive luciferase reporter” value in series [1] (atmosphere containing 0.5% O2) was “lost”. Further, the “effect on CMV-driven luciferase reporter expression” value in series [2] was “did not attenuate”. Moreover, the programmed cell death result in series [3] was “no overt evidence of programmed cell death”. In addition, the “prolyl hydroxylase activity (pVHL association with the biotinylated peptide)” value (from here on “prolyl hydroxylase activity”) in series [4] is “able to enhance pVHL association”.

B2: H135A: HPH 1 with His135 changed to alanine (protein)
chain: MPLGHIMRLDLEKIALEYIVPCLHEVGFCYLDNFLGEVVGDCVLERVKQLHCTGALRDGQLAGPRAGVSKRHLRGDQITWIGGNEEGCEAISFLLSLIDRLVLYCGSRLGKYYVKERSKAMVACYPGNGTGYVRAVDNPNGDGRCITCIYYLNKNWDAKLHGGILRIFPEGKSFIADVEPIFDRLLFFWSDRRNPHEVQPSYATRYAMTVWYFDAEERAEAKKKFRNLTRKTESALTED
modifications: left off: small tags and cut ends
As for B2, the “prolyl hydroxylase activity” value in series [4] is on record as “eliminated the prolyl hydroxylase activity”.

B3: D137A: HPH 1 with Asp137 changed to alanine (protein)
chain: MPLGHIMRLDLEKIALEYIVPCLHEVGFCYLDNFLGEVVGDCVLERVKQLHCTGALRDGQLAGPRAGVSKRHLRGDQITWIGGNEEGCEAISFLLSLIDRLVLYCGSRLGKYYVKERSKAMVACYPGNGTGYVRHVANPNGDGRCITCIYYLNKNWDAKLHGGILRIFPEGKSFIADVEPIFDRLLFFWSDRRNPHEVQPSYATRYAMTVWYFDAEERAEAKKKFRNLTRKTESALTED
modifications: left off: small tags and cut ends
In the case of B3, the “prolyl hydroxylase activity” value in series [4] is given as “eliminated the prolyl hydroxylase activity”.

B4: H196A: HPH 1 with His196 changed to alanine (protein)
chain: MPLGHIMRLDLEKIALEYIVPCLHEVGFCYLDNFLGEVVGDCVLERVKQLHCTGALRDGQLAGPRAGVSKRHLRGDQITWIGGNEEGCEAISFLLSLIDRLVLYCGSRLGKYYVKERSKAMVACYPGNGTGYVRHVDNPNGDGRCITCIYYLNKNWDAKLHGGILRIFPEGKSFIADVEPIFDRLLFFWSDRRNPAEVQPSYATRYAMTVWYFDAEERAEAKKKFRNLTRKTESALTED
modifications: left off: small tags and cut ends
B4: the “prolyl hydroxylase activity” value in series [4] is recorded as “eliminated the prolyl hydroxylase activity”.

B5: HPH 2: human HPH 1 paralog, Genbank AF229245; splice-variant in which residues 76-177 are omitted was used (protein)
chain: ANDSGGPGGPSPSERDRQYCELCGKMENLLRCSRCRSSFYCCKEHQRQDWKKHKLVCQGSEGALGHGVGPHQHSGPAPPAAVPPPRAGAREPRKAAARRDNASGDAAKGKVKAKPPADPAAAASPCRAAAGGQGSAVAAEAEPGKEEPPARSSLFQEKANLYPPSNTPGDALSPGGGLRPNGQTKPLPALKLALEYIVPCMNKHGICVVDDFLGKETGQQIGDEVRALHDTGKFTDGQLVSQKSDSSKDIRGDKITWIEGKEPGCETIGLLMSSMDDLIRHCNGKLGSYKINGRTKAMVACYPGNGTGYVRHVDNPNGDGRCVTCIYYLNKDWDAKVSGGILRIFPEGKAQFADIEPKFDRLLFFWSDRRNPHEVQPAYATRYAITVWYFDADERARAKVKYLTGEKGVRVELNKPSDSVGKDVF
modifications: left off: small tags and cut ends
As to B5, the “hydroxylation of the HIF-1a peptide substrate” value in series [4] (enzyme expressed in bacterial cells and purified by affinity chromatography) is given as “able to hydroxylate”. For the same molecule, in series [4], the “prolyl hydroxylase activity” value is recorded as “catalyze the hydroxylation”.
